Source: article PMC4809600, “The Influence of Chronic Wound Extracts on Inflammatory Cytokine and Histatin Stability” (PLoS ONE, 2016)

How the values were obtained:
[1] = Stability in chronic wound extracts (CWE), capillary zone electrophoresis; type: in vitro ADME, human; conditions: 37°C, CZE, 0 h = 100%; for Percentage intact, CWE 24h / Percentage intact, CWE 48h / Percentage intact, CWE 72h / Percentage intact, CWE 96h: 1 mg/ml in PBS mixed 1:1 with CWE (1 mg/ml protein, pool of 5 donors) in PBS, UV 200 nm, ratio to imidazole; for Starting material remaining intact after 96 h in CWE: 1 mg/ml in PBS mixed 1:1 with CWE (1 mg/ml protein, pools of 5 donors), mean of 3 independent experiments
Procedure, shortened: (§1)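 Peptides or cytokines (1 mg/ml stock) mixed 1:1 with PBS or pooled chronic-wound extract (1 mg/ml protein, three pools of five donors), ±protease inhibitor cocktail, at 37 °C for up to 96 h. Analyzed by capillary zone electrophoresis (pH 2.5 phosphate, 200 nm), with peak ratio to imidazole standard relative to 0 h as % intact.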

[2] = Stability in PBS, capillary zone electrophoresis; type: physicochemical; conditions: 1 mg/ml in PBS mixed 1:1 with PBS, 37°C, 96 h, CZE, UV 200 nm, ratio to imidazole internal standard, 0 h = 100%
Experimental: To determine the stability of the different peptides in CWE, histatins and cytokines were dissolved in PBS at 1 mg/ml. Histatins and cytokines were incubated in a 1:1 ratio with (i) PBS, (ii) CWE in PBS, or (iii) CWE in PBS containing PIC, in a total volume of 25 μl. Imidazole (Sigma-Aldrich) was added as an internal standard, with a final concentration of 100 μg/ml. The mixtures were incubated at 37°C, and samples were taken at 0, 24, 48, 72 and 96 h. For histatins containing mixtures, additional samples were taken after 2, 4, 8 and 16 h of incubation.
The samples were analyzed with a BioFocus 2000 capillary zone electrophoresis system (Bio-Rad Laboratories, Hercules, CA, USA) equipped with an uncoated fused-silica capillary of internal diameter 50 μm and a length of 24 cm. Samples were loaded by pressure injection (5 psi/sec). Separation was performed at 10 kV (cathode at the detector side) at 20°C using 0.1 M phosphate buffer (pH 2.5) as electrolyte and monitored continuously at 200 nm. Peaks were quantified with the BioFocus Integrator software. In order to quantify the percentage of intact peptides remaining after incubation with CWE, the ratios of histatins, rhIL-6 or rhCXCL8 to internal standard was set at 100% at 0h, and the ratios at the other incubation time points were related to this.

[3] = Stability in CWE with protease inhibitor cocktail (PIC), capillary zone electrophoresis; type: in vitro ADME, human; conditions: 1 mg/ml in PBS mixed 1:1 with CWE (1 mg/ml protein, pool of 5 donors) in PBS containing PIC (final 1:140 v/v), 37°C, CZE, ratio to imidazole, 0 h = 100%
Procedure, shortened: as §1

Row | Substance | Percentage intact, CWE 24h ([1]; experiment 1 of 3) | Percentage intact, CWE 24h ([1]; experiment 2 of 3) | Percentage intact, CWE 24h ([1]; experiment 3 of 3) | Percentage intact, CWE 48h ([1]; experiment 1 of 3) | Percentage intact, CWE 48h ([1]; experiment 2 of 3) | Percentage intact, CWE 48h ([1]; experiment 3 of 3) | Percentage intact, CWE 72h ([1]; experiment 1 of 3) | Percentage intact, CWE 72h ([1]; experiment 2 of 3) | Percentage intact, CWE 72h ([1]; experiment 3 of 3) | Percentage intact, CWE 96h ([1]; experiment 1 of 3) | Percentage intact, CWE 96h ([1]; experiment 2 of 3) | Percentage intact, CWE 96h ([1]; experiment 3 of 3) | Starting material remaining intact after 96 h in CWE [1] | Percentage intact, PBS 96h ([2]; experiment 1 of 3) | Percentage intact, PBS 96h ([2]; experiment 2 of 3) | Percentage intact, PBS 96h ([2]; experiment 3 of 3) | Percentage intact, CWE + PIC 24h ([3]; experiment 1 of 3) | Percentage intact, CWE + PIC 24h ([3]; experiment 2 of 3) | Percentage intact, CWE + PIC 24h ([3]; experiment 3 of 3) | Percentage intact, CWE + PIC 48h ([3]; experiment 1 of 3) | also measured
1 | CXCL8 CS: rhCXCL8 from Cell Systems, Cat nr. CS-C1069, CXCL8 (1–77) | 88.8666% | 92.8064% | 96.6818% | 87.3559% | 86.1407% | 89.0325% | 83.3251% | 83.9414% | 84.6704% | 78.0414% | 80.0263% | 80.2041% | 79% | 91.5892% | 91.4833% | 87.1812% | 104.747% | 99.4146% | 99.4369% | 98.6704% | Percentage intact, CWE + PIC 48h ([3]; experiment 2 of 3): 94.4506%; Percentage intact, CWE + PIC 48h ([3]; experiment 3 of 3): 91.0713%; Percentage intact, CWE + PIC 72h ([3]; experiment 1 of 3): 96.1244%; Percentage intact, CWE + PIC 72h ([3]; experiment 2 of 3): 88.7106%; Percentage intact, CWE + PIC 72h ([3]; experiment 3 of 3): 87.6839%; Percentage intact, CWE + PIC 96h ([3]; experiment 1 of 3): 87.7388%; Percentage intact, CWE + PIC 96h ([3]; experiment 2 of 3): 86.0248%; Percentage intact, CWE + PIC 96h ([3]; experiment 3 of 3): 85.3459%
2 | IL-6 CS: rhIL-6 from Cell Systems Biotechnology, Cat nr. CS-C1066 | 87.5606% | 96.7909% | 93.0609% | 82.5586% | 90.261% | 82.6368% | 76.7459% | 64.558% | 69.7531% | 67.9184% | 56.1934% | 44.5849% | 56% | 91.7071% | 94.938% | 88.4799% | 96.0006% | 88.559% | 95.4415% | 84.6802% | Percentage intact, CWE + PIC 48h ([3]; experiment 2 of 3): 88.7813%; Percentage intact, CWE + PIC 48h ([3]; experiment 3 of 3): 87.103%; Percentage intact, CWE + PIC 72h ([3]; experiment 1 of 3): 88.9677%; Percentage intact, CWE + PIC 72h ([3]; experiment 2 of 3): 86.585%; Percentage intact, CWE + PIC 72h ([3]; experiment 3 of 3): 83.9413%; Percentage intact, CWE + PIC 96h ([3]; experiment 1 of 3): 78.2271%; Percentage intact, CWE + PIC 96h ([3]; experiment 2 of 3): 83.1651%; Percentage intact, CWE + PIC 96h ([3]; experiment 3 of 3): 79.7008%
3 | IL-6 BioV: rhIL-6 from Biovision Inc, Cat nr. 4143 | 86.2456% | 92.3596% | 87.2422% | 74.2431% | 71.0486% | 85.9071% | 64.7766% | 67.0796% | 78.8792% | 48.2486% | 62.2324% | 63.6069% | 58% | 98.6817% | 79.9235% | 96.6267% | 100.779% | 107.202% | 97.2326% | 100.572% | Percentage intact, CWE + PIC 48h ([3]; experiment 2 of 3): 97.0586%; Percentage intact, CWE + PIC 48h ([3]; experiment 3 of 3): 95.2476%; Percentage intact, CWE + PIC 72h ([3]; experiment 1 of 3): 93.9962%; Percentage intact, CWE + PIC 72h ([3]; experiment 2 of 3): 96.7281%; Percentage intact, CWE + PIC 72h ([3]; experiment 3 of 3): 94.831%; Percentage intact, CWE + PIC 96h ([3]; experiment 1 of 3): 90.2939%; Percentage intact, CWE + PIC 96h ([3]; experiment 2 of 3): 94.0745%; Percentage intact, CWE + PIC 96h ([3]; experiment 3 of 3): 94.3747%
